The nature of this data set: self-splicing fitness, log relative to wild type (ln ratio); higher = more splicing; Tetrahymena group I intron in knt gene, E. coli kanamycin selection, DiMSum; sequences stand for … in CUCUCU…GGAGGGAAAAGUUAUCAGGCAUGCACCUGGUAGCUAGUCUUUAAACCAAUAGAUUGCAUCGGUUUAAAAGGCAAGACCGUCAAAUUGCGGGAAAGGGGUCAACAGCCGUUCAGUACCAAGUCUCAGGGGAAACUUUGAGAUGGCCUUGCAAAGGGUAUGGUAAUAAGCUGACGGACAUGGUCCUAACCACGCAGCCAAGUCCUAAGUCAACAGAUCUUCUGUUGAUAUGGAUGCAGUUCACAGACUAAAUGUCGGUCGGGGAAGAUGUAUUCUUCUCAUAAGAUAUAGUCGGACCUCUCCUUAAUGGGAGCUAGCGGAUGAAGUGAUGCAACACUGGAGCCGCUGGGAACUAAUUUGUAUGCGAAAGUAUAUUGAUUAGUUUUGGAGUACUCGUGGUCG
The procedure, abridged: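 DiMSum derived fitness as the error-weighted combination of fold changes across replicates, kanamycin versus no kanamycin, normalised to wild type. E. coli BL21(DE3) held the library, which randomised all eight P1ex-region intron nucleotides within the knt kanamycin-resistance gene on pET-22b(+). Six replicate transformations grew overnight at 37°C or 30°C on LB agar with or without 25 μg/mL kanamycin, also containing 100 μg/mL carbenicillin, 50 μM IPTG and 0.2% rhamnose, and pooled colonies were amplicon-sequenced on an Illumina HiSeq 2500.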

± gives the uncertainty stated by the source.

Take UGCGAGCAAUAUUACGUAUU: the “self-splicing fitness (ln)” value is, setting by setting: (30 °C) -3.07 ± 0.17; (37 °C) -2.58 ± 0.2.
On the same counts, the results for AUGGAGCAAUAUUACGGUAG are -3.61 ± 0.33 and -2.51 ± 0.41.
On the same counts, the results for GCCAAGCAAUAUUACGUGCA are -1.63 ± 0.087 and -0.541 ± 0.09.
With UCUUAGCAAUAUUACGCAUU, the “self-splicing fitness (ln)” value was -4.23 ± 0.19 (30 °C) and -2.47 ± 0.16 (37 °C).
Take CUUUAGCAAUAUUACGAAAC: the “self-splicing fitness (ln)” value (37 °C) was -1.65 ± 0.32.
As for CGACAGCAAUAUUACGGAAU, the “self-splicing fitness (ln)” value is -2.5 ± 0.24 (30 °C) and -2.54 ± 0.26 (37 °C).
For UUAGAGCAAUAUUACGCGUA, the “self-splicing fitness (ln)” value by setting is: (30 °C) -1.59 ± 0.11; (37 °C) -0.559 ± 0.13.
As to GGAAAGCAAUAUUACGCAUA, the “self-splicing fitness (ln)” value is -0.868 ± 0.1 (30 °C) and -1.5 ± 0.12 (37 °C).
As for UAUGAGCAAUAUUACGUGUG, the “self-splicing fitness (ln)” value is -2.41 ± 0.097 (30 °C) and -1.1 ± 0.085 (37 °C).
As for GGUGAGCAAUAUUACGAACU, under “30 °C”, the “self-splicing fitness (ln)” value is -2.18 ± 0.42.
In the case of GGGCAGCAAUAUUACGUGUA, the “self-splicing fitness (ln)” value was -2.19 ± 0.15 (30 °C) and -0.515 ± 0.12 (37 °C).
The matching figures for CUGGAGCAAUAUUACGUGGG: -3.7 ± 0.2 and -2.52 ± 0.26.
Take CCGGAGCAAUAUUACGGCAG: the “self-splicing fitness (ln)” value runs as follows: (30 °C) -3.21 ± 0.24; (37 °C) -3.16 ± 0.33.
Regarding CUAGAGCAAUAUUACGUAAC, the “self-splicing fitness (ln)” value was -4.96 ± 0.38 (30 °C) and -2.32 ± 0.19 (37 °C).
The matching figures for CGCCAGCAAUAUUACGUGCA: -0.897 ± 0.056 and 0.212 ± 0.085.
Turning to AAAGAGCAAUAUUACGUGAC, the “self-splicing fitness (ln)” value is -4.21 ± 0.21 (30 °C) and -2.62 ± 0.2 (37 °C).
With GUACAGCAAUAUUACGACAA, the “self-splicing fitness (ln)” value was -1.77 ± 0.14 (30 °C) and -0.826 ± 0.12 (37 °C).
On the same counts, the results for CUAAAGCAAUAUUACGAACA are -2.48 ± 0.12 and -2.03 ± 0.2.
On to GAUCAGCAAUAUUACGCCAG, for which the “self-splicing fitness (ln)” value is, setting by setting: (30 °C) -3.32 ± 0.3; (37 °C) -1.93 ± 0.31.
As for UCGUAGCAAUAUUACGGAAG, the “self-splicing fitness (ln)” value is -2.55 ± 0.29 (30 °C) and -1.94 ± 0.28 (37 °C).
The matching figures for AUUCAGCAAUAUUACGGAAC: -2.54 ± 0.15 and -1.01 ± 0.17.
As for GGCAAGCAAUAUUACGUCCU, the “self-splicing fitness (ln)” value was -1.39 ± 0.088 (30 °C) and -1.54 ± 0.11 (37 °C).
On to UCAAAGCAAUAUUACGUUAA, for which the “self-splicing fitness (ln)” value (30 °C) was -3.54 ± 0.19 and the “self-splicing fitness (ln)” value (37 °C) is -0.92 ± 0.12.
AGAGAGCAAUAUUACGGACU: the “self-splicing fitness (ln)” value runs as follows: (30 °C) -0.413 ± 0.12; (37 °C) -0.495 ± 0.17.
The matching figures for CUACAGCAAUAUUACGGUCC: -2.72 ± 0.18 and -2.15 ± 0.24.
In the case of GAACAGCAAUAUUACGAUAU, the “self-splicing fitness (ln)” value is, setting by setting: (30 °C) -1.36 ± 0.061; (37 °C) -0.525 ± 0.074.
Turning to GGUAAGCAAUAUUACGCGAC, the “self-splicing fitness (ln)” value is, setting by setting: (30 °C) -2.04 ± 0.16; (37 °C) -1.19 ± 0.2.
As for AAUUAGCAAUAUUACGGUUU, the “self-splicing fitness (ln)” value reads like this: (30 °C) -1.16 ± 0.063; (37 °C) -0.716 ± 0.089.
As for GGGUAGCAAUAUUACGUAUG, the “self-splicing fitness (ln)” value (37 °C) is -1.84 ± 0.19.
On to AUAUAGCAAUAUUACGUUGU, for which, for the setting “30 °C”, the “self-splicing fitness (ln)” value is -3.79 ± 0.29.
Regarding GCACAGCAAUAUUACGAAAU, the “self-splicing fitness (ln)” value (30 °C) was -1.63 ± 0.099 and the “self-splicing fitness (ln)” value (37 °C) is -0.818 ± 0.11.
With GAGGAGCAAUAUUACGUCAG, the “self-splicing fitness (ln)” value (30 °C) is -3.5 ± 0.37.
Consider AGCGAGCAAUAUUACGUAGU, for which the “self-splicing fitness (ln)” value runs as follows: (30 °C) -4.11 ± 0.16; (37 °C) -1.11 ± 0.13.
Turning to AGCUAGCAAUAUUACGAGGA, the “self-splicing fitness (ln)” value (30 °C) is -3.9 ± 0.35 and the “self-splicing fitness (ln)” value (37 °C) was -2.42 ± 0.42.
As to UAUUAGCAAUAUUACGAUGU, the “self-splicing fitness (ln)” value was -3.01 ± 0.23 (30 °C) and -1.06 ± 0.15 (37 °C).
On the same counts, the results for CUUAAGCAAUAUUACGAGCG are -0.691 ± 0.1 and -0.156 ± 0.15.
The matching figures for UAGAAGCAAUAUUACGCUAA: -1.42 ± 0.12 and -0.983 ± 0.1.
On the same counts, the results for ACCAAGCAAUAUUACGUACC are -1.57 ± 0.17 and -1.32 ± 0.17.
Take CCGCAGCAAUAUUACGAAUG: the “self-splicing fitness (ln)” value reads like this: (30 °C) -1.2 ± 0.063; (37 °C) -0.305 ± 0.065.
The matching figures for AGGCAGCAAUAUUACGUGGA: -4.02 ± 0.26 and -2.6 ± 0.14.
The matching figures for CUGGAGCAAUAUUACGUGAG: -0.772 ± 0.049 and -0.213 ± 0.063.
On the same counts, the results for UCCUAGCAAUAUUACGGGAG are -2.27 ± 0.25 and -2.37 ± 0.35.
Regarding CGCCAGCAAUAUUACGAAAG, the “self-splicing fitness (ln)” value is, setting by setting: (30 °C) -0.802 ± 0.054; (37 °C) 0.0641 ± 0.081.
The matching figures for CAGAAGCAAUAUUACGUGUU: -4.1 ± 0.18 and -3.45 ± 0.16.
Take AGGCAGCAAUAUUACGGAGA: the “self-splicing fitness (ln)” value is -2.91 ± 0.14 (30 °C) and -2.61 ± 0.17 (37 °C).
As to CCUGAGCAAUAUUACGAAAA, the “self-splicing fitness (ln)” value runs as follows: (30 °C) -3.64 ± 0.35; (37 °C) -2.52 ± 0.37.
Turning to UUGAAGCAAUAUUACGGAGU, the “self-splicing fitness (ln)” value (30 °C) is -2.51 ± 0.17 and the “self-splicing fitness (ln)” value (37 °C) was -1.83 ± 0.18.
Turning to AUAUAGCAAUAUUACGCUUU, the “self-splicing fitness (ln)” value was -2.12 ± 0.41 (30 °C) and -1.34 ± 0.31 (37 °C).
On the same counts, the results for CGCAAGCAAUAUUACGCUCU are -1.26 ± 0.093 and -0.475 ± 0.094.
Turning to GAUUAGCAAUAUUACGAGCC, the “self-splicing fitness (ln)” value by setting is: (30 °C) -0.73 ± 0.31; (37 °C) -1.4 ± 0.38.
As for CCUGAGCAAUAUUACGGGAG, the “self-splicing fitness (ln)” value is, setting by setting: (30 °C) -4.51 ± 0.27; (37 °C) -2.65 ± 0.2.
For CUCAAGCAAUAUUACGCUAC, the “self-splicing fitness (ln)” value (30 °C) was -4.12 ± 0.29 and the “self-splicing fitness (ln)” value (37 °C) was -2.23 ± 0.24.
On the same counts, the results for GAUCAGCAAUAUUACGGGUA are -0.0547 ± 0.089 and -0.665 ± 0.086.
The matching figures for AAUUAGCAAUAUUACGGGCG: -0.93 ± 0.12 and -1.36 ± 0.13.
The matching figures for GAGUAGCAAUAUUACGGAUU: -1.41 ± 0.073 and -0.46 ± 0.095.
As for AGUCAGCAAUAUUACGUAGA, the “self-splicing fitness (ln)” value was -2.08 ± 0.095 (30 °C) and -0.757 ± 0.098 (37 °C).
On the same counts, the results for UUUUAGCAAUAUUACGUGCA are -2.12 ± 0.17 and -1.11 ± 0.18.
With UAGAAGCAAUAUUACGGGGC, the “self-splicing fitness (ln)” value by setting is: (30 °C) -3.58 ± 0.39; (37 °C) -1.6 ± 0.21.
Take UGCAAGCAAUAUUACGAAUC: where the note is “30 °C”, the “self-splicing fitness (ln)” value is -3.56 ± 0.29.
As to ACUCAGCAAUAUUACGCAAA, the “self-splicing fitness (ln)” value runs as follows: (30 °C) -2.02 ± 0.12; (37 °C) -0.838 ± 0.11.
Take CGUUAGCAAUAUUACGACUC: the “self-splicing fitness (ln)” value is, setting by setting: (30 °C) -0.808 ± 0.25; (37 °C) 0.024 ± 0.23.
On the same counts, the results for GUACAGCAAUAUUACGAACG are -1.92 ± 0.17 and -1.22 ± 0.19.
The matching figures for ACCCAGCAAUAUUACGUCCG: -3.83 ± 0.22 and -0.701 ± 0.14.
On the same counts, the results for CCACAGCAAUAUUACGGAGG are -3.92 ± 0.22 and -1.16 ± 0.12.
As for AGACAGCAAUAUUACGGUAC, the “self-splicing fitness (ln)” value (30 °C) is -3.29 ± 0.17 and the “self-splicing fitness (ln)” value (37 °C) is -2.41 ± 0.17.
The matching figures for AAGGAGCAAUAUUACGUGUG: -3.39 ± 0.17 and -0.957 ± 0.15.
The matching figures for CCAGAGCAAUAUUACGUCAA: -4.08 ± 0.39 and -2.3 ± 0.35.
The matching figures for UCUUAGCAAUAUUACGAUCA: -1.3 ± 0.22 and -1.15 ± 0.23.
In the case of AAUAAGCAAUAUUACGGCGU, the “self-splicing fitness (ln)” value (30 °C) worked out at 0.428 ± 0.082 and the “self-splicing fitness (ln)” value (37 °C) stood at 0.242 ± 0.1.
Take ACAAAGCAAUAUUACGUUCC: the “self-splicing fitness (ln)” value runs as follows: (30 °C) -2.06 ± 0.11; (37 °C) -1.73 ± 0.15.
As for AAGGAGCAAUAUUACGUCAA, the “self-splicing fitness (ln)” value is, setting by setting: (30 °C) -1.97 ± 0.22; (37 °C) -2.96 ± 0.4.
On the same counts, the results for CUGAAGCAAUAUUACGACAA are -0.913 ± 0.13 and 0.0189 ± 0.19.
The matching figures for UAGUAGCAAUAUUACGGUCA: -0.074 ± 0.16 and -0.852 ± 0.18.
In the case of AGUAAGCAAUAUUACGGGUU, the “self-splicing fitness (ln)” value reads like this: (30 °C) -2.54 ± 0.18; (37 °C) -2.68 ± 0.2.
The matching figures for GGAUAGCAAUAUUACGUAUA: -2.53 ± 0.2 and -0.564 ± 0.15.
For the sequence CCAUAGCAAUAUUACGACCU, the “self-splicing fitness (ln)” value is -2.92 ± 0.33 (30 °C) and -1.28 ± 0.41 (37 °C).
In the case of ACUCAGCAAUAUUACGGCCG, the “self-splicing fitness (ln)” value is -1.87 ± 0.13 (30 °C) and -0.609 ± 0.15 (37 °C).

Source of the values: the supplement of paper PMC7877785.
